Patent publication US20260274985A1 (MYTHIC THERAPEUTICS, published 2026)

T1: Human TROP2 Protein, His Tag (Acro Biosystems) (human, UniProt P09758 27-274)
T1 construct: Bought protein; also called TACSTD2; not shown: His tag
T1 sequence: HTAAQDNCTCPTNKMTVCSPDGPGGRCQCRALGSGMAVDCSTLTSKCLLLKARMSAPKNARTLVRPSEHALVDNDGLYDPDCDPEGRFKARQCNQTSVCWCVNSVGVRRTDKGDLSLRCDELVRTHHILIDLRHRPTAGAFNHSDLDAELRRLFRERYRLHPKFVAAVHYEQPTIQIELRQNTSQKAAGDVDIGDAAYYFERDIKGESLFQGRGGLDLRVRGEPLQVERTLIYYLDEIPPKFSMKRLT

T2: Human TROP2 Protein, His Tag (Acro Biosystems) (human, UniProt P09758 27-274)
T2 construct: not shown: His tag
T2 sequence (looked up): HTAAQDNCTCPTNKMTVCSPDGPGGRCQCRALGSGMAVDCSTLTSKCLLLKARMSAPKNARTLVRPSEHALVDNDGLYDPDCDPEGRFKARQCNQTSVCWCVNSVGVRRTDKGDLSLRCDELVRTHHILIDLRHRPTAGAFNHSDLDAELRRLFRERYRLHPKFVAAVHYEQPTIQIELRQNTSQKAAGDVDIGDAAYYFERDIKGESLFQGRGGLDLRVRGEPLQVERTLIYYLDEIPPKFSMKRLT

T3: TROP2 on TROP2-positive NCI-H1975 cells (human, UniProt P09758 27-323)
T3 sequence: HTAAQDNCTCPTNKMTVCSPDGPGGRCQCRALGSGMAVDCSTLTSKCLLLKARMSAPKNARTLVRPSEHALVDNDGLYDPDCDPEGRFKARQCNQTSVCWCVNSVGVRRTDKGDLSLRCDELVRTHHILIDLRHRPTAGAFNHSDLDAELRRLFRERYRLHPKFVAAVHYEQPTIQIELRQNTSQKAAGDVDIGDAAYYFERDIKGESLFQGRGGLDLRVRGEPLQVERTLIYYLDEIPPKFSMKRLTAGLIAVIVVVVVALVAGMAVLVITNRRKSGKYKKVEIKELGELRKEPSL


Tests used:
[1] = biological target: T1, Human TROP2 Protein, His Tag (Acro …); test: BLI (Octet)
[2] = biological target: T2, Human TROP2 Protein, His Tag (Acro …); test: Octet BLI: IgG supernatant on anti-human Fc sensor, 50 nM TROP2-His at pH 7.4; Octet Binding Result 3=No binding
Experimental: (§1) After allowing for four days of protein expression, cell culture supernatants were collected, quantified by SDS-PAGE analysis (DNS), and the pH dependence of the variant was evaluated using biolayer interferometry (BLI) on an Octet RED 96e instrument. Briefly, cell culture supernatants were diluted based on qualitative expression level of the variant determined by visual examination of SDS-PAGE gels, 5 μL of cell culture supernatant was diluted into 195 μL of 1×PBST, pH 7.4 for high expressors, 25 μL of cell culture supernatant was diluted into 175 μL of 1×PBST, pH 7.4 for medium expressors and 100 μL of cell culture supernatant was diluted into 100 μL of 1×PBST, pH 7.4 for low expressors for loading onto the sensor tips. The resulting diluted supernatants were then captured on an anti-human Fc sensor (Forte Bio). A baseline was established using 1×PBST (50 mM Potassium Phosphate Buffer+150 mM NaCl+0.05% Tween 20) pH 7.4, and the sensor was associated with 50 nM of TROP2 (Human TROP2 Protein, His Tag, Acro Biosystems) in 1×PBST pH 7.4 for 120 sec to generate an association curve. In the dissociation phase, the antibody-antigen complex on the sensor was exposed to 1×PBST pH 7.4 or pH 5.4, for 300 sec. Association and dissociation phase curves were examined for the starting ABPC antibody (with no substitutions) and each corresponding antibody variant at pH 5.4 and pH 7.4 to inform on two criteria: a) enhanced dissociation (i.e., higher koff values) at pH 5.4 due to histidine or alanine substitution compared to the starting ABPC, (with no substitutions), and b) reduced dissociation at pH 7.4 (i.e., lower koff values) compared to pH 5.4 in the antibody variant itself and with the starting ABPC (with no substitutions). […] It was also noted that while some mutations obliterated TROP2 binding, others were tolerated with little or n change in TROP2 binding kinetics.

[3] = biological target: T3, TROP2 on TROP2-positive NCI-H1975 cells; test: cell-based or functional assay
[4] = biological target: T2, Human TROP2 Protein, His Tag (Acro …); test: Octet BLI: IgG supernatant on anti-human Fc sensor, 50 nM TROP2-His at pH 7.4, dissociation at pH 7.4 or 5.4; Octet Binding Result 1=pH dependent
Experimental: as §1

| Binder | binding result [2] | binding result [4] | other results |
| --- | --- | --- | --- |
| MYT12433 (hu7E6SVG variant, HCV substitutions at 33, 56, 106) (antibody, V domains shown) VH: QVQLQESGPGLVKPSETLSLTCTVSGGSISSYHVHWIRQPPGKGLEWIGVIWTSGHTDYNSALMGRVTISVDTSKNQFSLKLSSVTAADTAVYYCARDGDYDRYTHDYWGQGTLVTVSS VL: DIVMTQSPDSLAVSLGERATINCRASKSVSTSGYSYMHWYQQKPGQPPKLLIYLASNLESGVPDRFSGSGSGTDFTLTISSLQAEDVAVYYCQHSRELPYTFGQGTKLEIK |  |  | binding result [1]: no binding (tested: 50 nM) |
| MYT12434 (hu7E6SVG variant, HCV substitutions at 33, 103, 106) (antibody, V domains shown) VH: QVQLQESGPGLVKPSETLSLTCTVSGGSISSYHVHWIRQPPGKGLEWIGVIWTSGVTDYNSALMGRVTISVDTSKNQFSLKLSSVTAADTAVYYCARDGDYDHYTHDYWGQGTLVTVSS VL: DIVMTQSPDSLAVSLGERATINCRASKSVSTSGYSYMHWYQQKPGQPPKLLIYLASNLESGVPDRFSGSGSGTDFTLTISSLQAEDVAVYYCQHSRELPYTFGQGTKLEIK |  |  | binding result [1]: no binding (tested: 50 nM) |
| MYT13443 (antibody, V domains shown, Full-length IgG from Expi293 supernatant; also called hu7E6SVG heavy chain and light chain pairing variant) VH: QVQLQESGPGLVKPSETLSLTCTVSGGSISSYGVHWIRQPPGKGLEWIGVHWTSGVTDYNSALMGRVTISVDTSKNQFSLKLSSVTAADTAVYYCARDGDYDRYTMDYWGQGTLVTVSS VL: DIVMTQSPDSLAVSLGERATINCRASKSVSTSGYSYMHWYQQKPGQPPKLLIYLASNLHSGVPDRFSGSGSGTDFTLTISSLQAEDVAVYYCQHSRELPYHFGQGTKLEIK | no binding (tested: 50 nM) |  |  |
| MYT12473 (hu7E6SVG variant, LCV substitutions at 94, 97, 101 (Ala at 94)) (antibody, V domains shown, Full IgG in Expi293 supernatant) VH: QVQLQESGPGLVKPSETLSLTCTVSGGSISSYGVHWIRQPPGKGLEWIGVIWTSGVTDYNSALMGRVTISVDTSKNQFSLKLSSVTAADTAVYYCARDGDYDRYTMDYWGQGTLVTVSS VL: DIVMTQSPDSLAVSLGERATINCRASKSVSTSGYSYMHWYQQKPGQPPKLLIYLASNLESGVPDRFSGSGSGTDFTLTISSLQAEDVAVYYCQASRHLPYHFGQGTKLEIK |  |  | binding result [1]: no binding (tested: 50 nM) |
| MYT13306 (antibody, V domains shown, Full-length IgG from Expi293 supernatant; also called hu7E6SVG heavy chain and light chain pairing variant) VH: QVQLQESGPGLVKPSETLSLTCTVSGGSISSYGVHWIRQPPGKGLEWIGVHWTSGVTDYNSALMGRVTISVDTSKNQFSLKLSSVTAADTAVYYCARDGDYDRYTMDYWGQGTLVTVSS VL: DIVMTQSPDSLAVSLGERATINCRASKSVSTSGYSYMHWYQQKPGQPPKLLIYLASNLHSGVPDRFSGSGSGTDFTLTISSLQAEDVAVYYCQASRELPYTFGQGTKLEIK | no binding (tested: 50 nM) |  |  |
| MYT13312 (antibody, V domains shown, Full-length IgG from Expi293 supernatant; also called hu7E6SVG heavy chain and light chain pairing variant) VH: QVQLQESGPGLVKPSETLSLTCTVSGGSISSYGVHWIRQPPGKGLEWIGVIWTSGHTDYNSALMGRVTISVDTSKNQFSLKLSSVTAADTAVYYCARDGDYDRYTMDYWGQGTLVTVSS VL: DIVMTQSPDSLAVSLGERATINCRASKSVSTSGYSYMHWYQQKPGQPPKLLIYLASNLHSGVPDRFSGSGSGTDFTLTISSLQAEDVAVYYCQHSRELPYHFGQGTKLEIK | no binding (tested: 50 nM) |  |  |
| MYT12468 (hu7E6SVG variant, LCV substitutions at 60, 94, 101 (Ala at 94)) (antibody, V domains shown, Full IgG in Expi293 supernatant) VH: QVQLQESGPGLVKPSETLSLTCTVSGGSISSYGVHWIRQPPGKGLEWIGVIWTSGVTDYNSALMGRVTISVDTSKNQFSLKLSSVTAADTAVYYCARDGDYDRYTMDYWGQGTLVTVSS VL: DIVMTQSPDSLAVSLGERATINCRASKSVSTSGYSYMHWYQQKPGQPPKLLIYLASNLEHGVPDRFSGSGSGTDFTLTISSLQAEDVAVYYCQASRELPYHFGQGTKLEIK |  |  | binding result [1]: no binding (tested: 50 nM) |
| MYT13311 (antibody, V domains shown, Full-length IgG from Expi293 supernatant; also called hu7E6SVG heavy chain and light chain pairing variant) VH: QVQLQESGPGLVKPSETLSLTCTVSGGSISSYGVHWIRQPPGKGLEWIGVHWTSGVTDYNSALMGRVTISVDTSKNQFSLKLSSVTAADTAVYYCARDGDYDRYTMDYWGQGTLVTVSS VL: DIVMTQSPDSLAVSLGERATINCRASKSVSTSGYSYMHWYQQKPGQPPKLLIYLASNLHSGVPDRFSGSGSGTDFTLTISSLQAEDVAVYYCQHSRELPYHFGQGTKLEIK | no binding (tested: 50 nM) |  |  |
| MYT13307 (antibody, V domains shown, Full-length IgG from Expi293 supernatant; also called hu7E6SVG heavy chain and light chain pairing variant) VH: QVQLQESGPGLVKPSETLSLTCTVSGGSISSYGVHWIRQPPGKGLEWIGVIWTSGHTDYNSALMGRVTISVDTSKNQFSLKLSSVTAADTAVYYCARDGDYDRYTMDYWGQGTLVTVSS VL: DIVMTQSPDSLAVSLGERATINCRASKSVSTSGYSYMHWYQQKPGQPPKLLIYLASNLHSGVPDRFSGSGSGTDFTLTISSLQAEDVAVYYCQASRELPYTFGQGTKLEIK | no binding (tested: 50 nM) |  |  |
| 166-DXd (antibody, IgG1, V domains shown, maleimide based GGFG-DXd conjugated to hinge cysteines, average DAR of about 4) VH: QVQLQQSGSELKKPGASVKVSCKASGYTFTNYGMNWVKQAPGQGLKWMGWINTYTGEPTYTHDFKGRFAFSLDTSVSTAYLQISSLKADDTAVYFCARGGFGSSYWYFDVWGQGSLVTVSS VL: DIQLTQSPSSLSASVGDRVSITCKASQDVHIAVAWYQQKPGKAPKLLIYSHSYRYTGVPDRFSGSGSGTDFTLTISSLQPEDFAVYYCQQHYHTPLTFGAGTKVEIK |  |  | % efficiency @ 100 nM ADC (cytotoxicity in NCI-H1975 cells) [3]: 9.57% |
| MYT13275 (antibody, V domains shown, Full-length IgG from Expi293 supernatant; also called datopotamab heavy chain and light chain pairing variant) VH: QVQLVQSGAEVKKPGASVKVSCKASGYTFTTAGMQWVRQAPGQGLEWMGWINTHSGVPKYAEDFKGRVTISADTSTSTAYLQLSSLKSEDTAVYYCARSGFGSHYWYFDVWGQGTLVTVSS VL: DIQMTQSPSSLSASVGDRVTITCKASQDVSTAVAWYQQKPGKAPKLLIYSASYRYTGVPSRFSGSGSGTDFTLTISSLQPEDFAVYYCQQHYHTPLTFGQGTKLEIK |  | binds |  |
| MYT13267 (antibody, V domains shown, Full-length IgG from Expi293 supernatant; also called datopotamab heavy chain and light chain pairing variant) VH: QVQLVQSGAEVKKPGASVKVSCKASGYTFTTAGMQWVRQAPGQGLEWMGWINTHSGVPKYAEDFKGRVTISADTSTSTAYLQLSSLKSEDTAVYYCARSGFGSHYWYFDVWGQGTLVTVSS VL: DIQMTQSPSSLSASVGDRVTITCKASQDVSTAVAWYQQKPGKAPKLLIYSASHRYTGVPSRFSGSGSGTDFTLTISSLQPEDFAVYYCQQHYITPLTFGQGTKLEIK |  | binds |  |
| MYT13274 (antibody, V domains shown, Full-length IgG from Expi293 supernatant; also called datopotamab heavy chain and light chain pairing variant) VH: QVQLVQSGAEVKKPGASVKVSCKASGYTFTTAGMQWVRQAPGQGLEWMGWINTHSGVPKYAEDFKGRVTISADTSTSTAYLQLSSLKSEDTAVYYCARSGHGSSYWYFDVWGQGTLVTVSS VL: DIQMTQSPSSLSASVGDRVTITCKASQDVSTAVAWYQQKPGKAPKLLIYSASYRYTGVPSRFSGSGSGTDFTLTISSLQPEDFAVYYCQQHYHTPLTFGQGTKLEIK |  | binds |  |
| MYT13273 (antibody, V domains shown, Full-length IgG from Expi293 supernatant; also called datopotamab heavy chain and light chain pairing variant) VH: QVQLVQSGAEVKKPGASVKVSCKASGYTFTTAGMQWVRQAPGQGLEWMGWINTHSGVPKYAEDFKGRVTISADTSTSTAYLQLSSLKSEDTAVYYCAHSGFGSSYWYFDVWGQGTLVTVSS VL: DIQMTQSPSSLSASVGDRVTITCKASQDVSTAVAWYQQKPGKAPKLLIYSASYRYTGVPSRFSGSGSGTDFTLTISSLQPEDFAVYYCQQHYHTPLTFGQGTKLEIK |  | binds |  |
| MYT13266 (antibody, V domains shown, Full-length IgG from Expi293 supernatant; also called datopotamab heavy chain and light chain pairing variant) VH: QVQLVQSGAEVKKPGASVKVSCKASGYTFTTAGMQWVRQAPGQGLEWMGWINTHSGVPKYAEDFKGRVTISADTSTSTAYLQLSSLKSEDTAVYYCARSGHGSSYWYFDVWGQGTLVTVSS VL: DIQMTQSPSSLSASVGDRVTITCKASQDVSTAVAWYQQKPGKAPKLLIYSASHRYTGVPSRFSGSGSGTDFTLTISSLQPEDFAVYYCQQHYITPLTFGQGTKLEIK |  | binds |  |
